Reference: US10836808B2, “Binding-triggered transcriptional switches and methods of use thereof” (The Regents of the University of California, priority 2015, dated 2020)

Assays:
gamma secretase = assay: Chimeric Notch (anti-CD19 scFv/tTA) receiver cell GFP reporter with CD19 sender cells, with or without DAPT; type: cell-based, mouse; conditions: 1 mM DAPT, in the presence of CD19 sender cells
Text: DAPT is a gamma secretase inhibitor. The data are expressed as GFP^+“receiver” cells.

K562 cells = assay: Sensitivity of cancer cell lines to recombinant TRAIL; type: cell-based; conditions: 1 to 200 ng/mL, 24 hours
Method: (§1) The cells were then harvested and stained with the live/dead stain, SYTOX Blue (Thermo Scientific #S34857) and the fraction of dead cells was determined by flow cytometry on a BD LSR II.

[1] = system: HCT116 colon cancer cells; assay: as above; type: cell-based; conditions: 1 to 200 ng/mL, 24 hours
Method: as §1

## C[C@H](NC(=O)Cc1cc(F)cc(F)c1)C(=O)NC(C(=O)OC(C)(C)C)c1ccccc1 (some centres unmarked) [DAPT]
Gamma secretase
  GFP+ receiver cells: at control, untreated levels

B1: soluble TRAIL: an inducer of apoptosis and a cancer therapeutic (protein, UniProt P50591 39-281, looked up)
extracellular domain: TNELKQMQDKYSKSGIACFLKEDDSYWDPNDEESMNSPCWQVKWQLRQLVRKMILRTSEETISTVQEKQQNISPLVRERGPQRVAAHITGTRGRSNTLSSPNSKNEKALGRKINSWESSRSGHSFLSNLHLRNGELVIHEKGFYYIYSQTYFRFQEEIKENTKNDKQMVQYIYKYTSYPDPILLMKSARNSCWSKDAEYGLYSIYQGGIFELKENDRIFVSVTNEHLIDMDHEASFFGAFLVG
modifications: extracellular domain
notes: an inducer of apoptosis and a cancer therapeutic
K562 cells
  induction of apoptosis in cancer cell line: does not induce apoptosis even at high doses
K562 cells; listed as recombinant TRAIL
  induction of apoptosis in cancer cell line: insensitive to TRAIL treatment
[1]
  killing of cancer cell line: effective at killing
[1]; listed as recombinant TRAIL
  killing of cancer cell line: sensitive to low level TRAIL treatment
